Measured values published in patent publication US20110239319, “Use of Endonucleases for Inserting Transgenes Into Safe Harbor Loci” (published 2011).

Columns and labels:
Experiment in all cases: cell_activity; endogenous locus, 293H
SCOH-SH13 = target: T1, SCOH-SH13 (artificial)
T1 chain: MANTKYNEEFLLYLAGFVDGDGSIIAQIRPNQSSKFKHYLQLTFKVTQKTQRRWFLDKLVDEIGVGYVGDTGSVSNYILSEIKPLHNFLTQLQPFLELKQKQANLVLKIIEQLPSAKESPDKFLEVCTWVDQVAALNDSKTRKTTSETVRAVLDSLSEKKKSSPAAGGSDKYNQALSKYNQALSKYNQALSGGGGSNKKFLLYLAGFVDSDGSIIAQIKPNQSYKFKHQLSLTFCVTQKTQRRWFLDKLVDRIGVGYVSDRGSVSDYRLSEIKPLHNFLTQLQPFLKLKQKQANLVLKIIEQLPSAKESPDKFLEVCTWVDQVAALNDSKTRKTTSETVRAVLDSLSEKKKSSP
Procedure: (§1) Human embryonic kidney 293H cells (Invitrogen) were plated at a density of 1×10⁶ cells per 10 cm dish in complete medium (DMEM supplemented with 2 mM L-glutamine, penicillin (100 UI/ml), streptomycin (100 μg/ml), amphotericin B (Fongizone) (0.25 μg/ml) (Invitrogen-Life Science) and 10% FBS). The next day, cells were transfected with 3 μg of single-chain meganuclease expression vector using Lipofectamine 2000 transfection reagent (Invitrogen) according to the supplier's protocol. After 2 to 6 days of incubation at 37° C., cells were trypsinized and genomic DNA extraction was performed with the DNeasy blood and tissue kit (Qiagen) according to the supplier's protocol.
(§2) Human embryonic kidney 293H cells were transfected with a plasmid expressing a single-chain safe harbor meganuclease. After 2 to 6 days of incubation at 37° C., genomic DNA was isolated and PCR was used to amplify the genomic sequence surrounding the meganuclease target site. Sequences were then analyzed for the presence of insertions or deletions events (InDel) in the cleavage site of each safe harbor target.

SCOH-SH6-b12-G2_BQY = target: T2, SCOH-SH6-b12-G2_BQY (artificial)
T2 chain: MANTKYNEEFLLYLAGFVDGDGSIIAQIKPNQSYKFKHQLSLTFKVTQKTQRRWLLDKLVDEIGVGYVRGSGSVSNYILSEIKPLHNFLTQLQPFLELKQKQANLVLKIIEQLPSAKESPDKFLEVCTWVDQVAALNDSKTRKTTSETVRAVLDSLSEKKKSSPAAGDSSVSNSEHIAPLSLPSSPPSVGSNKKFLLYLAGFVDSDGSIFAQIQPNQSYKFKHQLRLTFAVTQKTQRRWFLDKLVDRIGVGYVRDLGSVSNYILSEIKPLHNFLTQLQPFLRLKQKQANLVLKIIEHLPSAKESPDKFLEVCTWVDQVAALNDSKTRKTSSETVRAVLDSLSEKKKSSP
Procedure: as §1, §2

SCOH-SH6-b11-G2.2_BQY = target: T3, SCOH-SH6-b11-G2.2_BQY (artificial)
T3 chain: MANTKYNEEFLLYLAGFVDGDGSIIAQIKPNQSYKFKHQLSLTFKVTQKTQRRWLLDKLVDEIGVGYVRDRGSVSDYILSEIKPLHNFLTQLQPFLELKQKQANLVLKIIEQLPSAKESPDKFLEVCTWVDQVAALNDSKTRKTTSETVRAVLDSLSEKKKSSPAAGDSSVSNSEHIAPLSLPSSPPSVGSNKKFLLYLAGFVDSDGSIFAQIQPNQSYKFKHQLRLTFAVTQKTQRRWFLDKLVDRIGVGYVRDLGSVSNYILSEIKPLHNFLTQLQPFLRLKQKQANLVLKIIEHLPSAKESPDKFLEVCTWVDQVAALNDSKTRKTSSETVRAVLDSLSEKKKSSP
Procedure: as §1, §2

[1] = target: T4, QCSH61-H01d (QC-SH6-H01_V2_7E_70R75D) (artificial)
T4 chain: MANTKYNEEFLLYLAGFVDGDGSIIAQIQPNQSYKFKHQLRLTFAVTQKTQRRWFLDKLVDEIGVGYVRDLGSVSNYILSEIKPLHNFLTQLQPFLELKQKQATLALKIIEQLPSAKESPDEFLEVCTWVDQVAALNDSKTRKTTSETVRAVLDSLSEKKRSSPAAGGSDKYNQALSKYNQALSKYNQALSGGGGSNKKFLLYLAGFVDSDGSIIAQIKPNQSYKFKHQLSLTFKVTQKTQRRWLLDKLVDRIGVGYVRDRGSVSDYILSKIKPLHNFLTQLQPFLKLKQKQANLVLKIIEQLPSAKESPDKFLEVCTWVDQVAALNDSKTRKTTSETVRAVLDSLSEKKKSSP
Procedure: as §1, §2

[2] = target: T5, QCSH61-H01b (QC-SH6-H01_7E) (artificial)
T5 chain: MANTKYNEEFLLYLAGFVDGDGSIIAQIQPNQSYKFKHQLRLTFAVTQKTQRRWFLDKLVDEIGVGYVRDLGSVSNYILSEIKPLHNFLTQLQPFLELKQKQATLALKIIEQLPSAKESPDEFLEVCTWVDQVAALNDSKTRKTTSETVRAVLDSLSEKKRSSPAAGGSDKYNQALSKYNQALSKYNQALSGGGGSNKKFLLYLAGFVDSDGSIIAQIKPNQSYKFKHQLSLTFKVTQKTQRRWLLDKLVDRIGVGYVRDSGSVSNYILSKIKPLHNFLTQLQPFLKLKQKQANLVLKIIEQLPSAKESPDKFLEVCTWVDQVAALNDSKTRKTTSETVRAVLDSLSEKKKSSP
Procedure: as §1, §2

[3] = target: T6, QCSH61-H01a (SCOH-QCSH6-H01) (artificial)
T6 chain: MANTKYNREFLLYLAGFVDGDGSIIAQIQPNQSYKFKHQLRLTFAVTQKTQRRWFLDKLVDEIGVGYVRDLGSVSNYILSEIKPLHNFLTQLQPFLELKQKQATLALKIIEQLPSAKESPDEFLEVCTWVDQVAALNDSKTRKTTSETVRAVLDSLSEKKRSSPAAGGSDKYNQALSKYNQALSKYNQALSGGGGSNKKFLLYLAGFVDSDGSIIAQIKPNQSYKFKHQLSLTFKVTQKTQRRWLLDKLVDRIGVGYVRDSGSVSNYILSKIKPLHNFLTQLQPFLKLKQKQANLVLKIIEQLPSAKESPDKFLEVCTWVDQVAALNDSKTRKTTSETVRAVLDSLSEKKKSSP
Procedure: as §1, §2

SCOH-SH18-b11-C.2 = target: T7, SCOH-SH18-b11-C.2 (artificial)
T7 chain: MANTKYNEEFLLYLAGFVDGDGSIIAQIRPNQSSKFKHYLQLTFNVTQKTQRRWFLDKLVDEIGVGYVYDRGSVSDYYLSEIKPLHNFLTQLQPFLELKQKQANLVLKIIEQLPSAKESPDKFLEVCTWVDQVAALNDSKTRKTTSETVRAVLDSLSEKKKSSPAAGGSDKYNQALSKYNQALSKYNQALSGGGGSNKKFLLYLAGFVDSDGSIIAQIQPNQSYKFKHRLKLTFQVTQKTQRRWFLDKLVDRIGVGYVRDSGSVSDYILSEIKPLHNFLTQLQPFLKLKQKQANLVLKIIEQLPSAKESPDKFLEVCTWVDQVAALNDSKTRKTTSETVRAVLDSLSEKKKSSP
Procedure: as §1, §2

SCOH-SH8 = target: T8, SCOH-SH8 (artificial)
T8 chain: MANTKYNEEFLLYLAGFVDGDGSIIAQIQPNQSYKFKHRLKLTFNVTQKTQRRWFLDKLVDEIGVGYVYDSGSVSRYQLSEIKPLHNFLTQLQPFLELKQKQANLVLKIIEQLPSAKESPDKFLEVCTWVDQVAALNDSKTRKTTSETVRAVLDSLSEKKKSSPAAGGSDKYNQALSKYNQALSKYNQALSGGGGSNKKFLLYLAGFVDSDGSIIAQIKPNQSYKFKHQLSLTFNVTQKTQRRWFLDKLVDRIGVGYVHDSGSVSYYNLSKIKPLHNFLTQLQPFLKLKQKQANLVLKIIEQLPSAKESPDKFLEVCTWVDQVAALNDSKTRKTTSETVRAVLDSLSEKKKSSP
Procedure: as §1, §2

B1: SH13 target (dsDNA)
DNA 1: ATTACACTCTTTAAGTGATTTTAA
DNA 2: TTAAAATCACTTAAAGAGTGTAAT
For B1, the activity (SCOH-SH13) was 1.5 % InDels.

B2: SH6 target (dsDNA)
DNA 1: TTAATACCCCGTACCTAATATTGC
DNA 2: GCAATATTAGGTACGGGGTATTAA
B2 showed an activity (SCOH-SH6-b12-G2_BQY) of 1 % InDels, an activity (SCOH-SH6-b11-G2.2_BQY) of 3 % InDels and an activity [1] of 3.5 % InDels. It also gave an activity [2] of 1.5 % InDels and an activity [3] of 0.6 % InDels.

B3: SH18 target (dsDNA)
DNA 1: CTTACCCCACGTACCACAGACTGT
DNA 2: ACAGTCTGTGGTACGTGGGGTAAG
With B3 the activity (SCOH-SH18-b11-C.2) was 1.2 % InDels.

B4: SH8 target (dsDNA)
DNA 1: ACAATCTGAGGTAAGTAATACTGA
DNA 2: TCAGTATTACTTACCTCAGATTGT
B4 was tested, and the activity (SCOH-SH8) was 0.5 % InDels.
